The values below come from paper PMC5969528.

Read-outs that look alike come from different tables or passages of the source.

For test [1], the target named is cytoplasmic dynein-1 heavy chain (mouse (endogenous in mouse brain)) (UniProt Q9JHU4). As to the kind of experiment: cryo-EM structure.
Test [2] has the same target. As to the kind of experiment: cryo-EM structure. This is another data set of the same source.

As usually defined, the stoichiometry N is a count of units in the complex or per binding partner. Regarding “cytoplasmic dynein-1 heavy chain, Q9JHU4 1-4644”, the stoichiometry N in test [1] and in test [2] was 2 in each case.
